Laboratory results taken from patent US20220195052A1 (Biogen, published 2022).

Experiments:
[1] = molecular target: T1, mouse αvβ1 integrin on BLO-11 mouse skeletal muscle fibroblasts (mouse, UniProt P43406 31-1044; P09055 21-798); experiment: flow cytometry on BLO-11 mouse skeletal muscle fibroblasts
T1 construct: whole, on cells; the cells carry other integrins as well; also called BLO-11 (murine fibroblast cells)
Method: MRC9 cells were obtained from Sigma (#85020202) and maintained in EMEM (ATCC, #30-2003) supplemented with 10% Fetal Bovine Serum (FBS from Gibco, #16000-077). BLO-11 cells were obtained from ATCC (#CCL-198) and maintained in DMEM (ATCC, #30-2002) supplemented with 10% FBS. Cells were harvested by incubating with cell dissociation buffer (Gibco, #13150-016) at 37° C. for 10 min and then washed with FACS buffer containing CaCl₂) and MgCl₂ (FACS⁺⁺ buffer; PBS+1% BSA+1 mM CaCl₂)+1 mM MgCl₂). All staining and wash steps were performed at 4° C. in FACS⁺⁺ buffer. In a 96 well U bottom plate, 0.75×10⁶ cells per well were plated and then spun down to remove supernatant. Cells were then resuspended in serially diluted primary antibody and incubated for 30 min. After incubation, cells were washed twice and then incubated with α-human IgG Alexa Fluor 647 (Invitrogen, #A21445) secondary antibody for another 30 min. Cells were then washed twice and fixed with 1% PFA diluted in PBS for 30 min, followed by a final wash. Fluorescence activated cell sorting (FACS) analysis was performed using a five-laser BD LSR-II flow cytometer (BD Biosciences, San Jose, Calif., USA), and data were analyzed using FlowJo software v9 (Treestar, Ashland, Oreg., USA) and transferred into analysis and graphic software including GraphPad Prism 7 (La Jolla, Calif., USA).

[2] = molecular target: T2, human αvβ1 integrin on cells (human, UniProt P06756 31-1048; P05556 21-798); experiment: flow cytometry on stably transfected cells, antibody titration (bivalent EC50)
T2 construct: also called stably transfected human αvβ1 cells; αvβ1 on MRC9 human lung fibroblasts
T2 sequence (P06756 31-1048 limits assumed, chain 1 of 2): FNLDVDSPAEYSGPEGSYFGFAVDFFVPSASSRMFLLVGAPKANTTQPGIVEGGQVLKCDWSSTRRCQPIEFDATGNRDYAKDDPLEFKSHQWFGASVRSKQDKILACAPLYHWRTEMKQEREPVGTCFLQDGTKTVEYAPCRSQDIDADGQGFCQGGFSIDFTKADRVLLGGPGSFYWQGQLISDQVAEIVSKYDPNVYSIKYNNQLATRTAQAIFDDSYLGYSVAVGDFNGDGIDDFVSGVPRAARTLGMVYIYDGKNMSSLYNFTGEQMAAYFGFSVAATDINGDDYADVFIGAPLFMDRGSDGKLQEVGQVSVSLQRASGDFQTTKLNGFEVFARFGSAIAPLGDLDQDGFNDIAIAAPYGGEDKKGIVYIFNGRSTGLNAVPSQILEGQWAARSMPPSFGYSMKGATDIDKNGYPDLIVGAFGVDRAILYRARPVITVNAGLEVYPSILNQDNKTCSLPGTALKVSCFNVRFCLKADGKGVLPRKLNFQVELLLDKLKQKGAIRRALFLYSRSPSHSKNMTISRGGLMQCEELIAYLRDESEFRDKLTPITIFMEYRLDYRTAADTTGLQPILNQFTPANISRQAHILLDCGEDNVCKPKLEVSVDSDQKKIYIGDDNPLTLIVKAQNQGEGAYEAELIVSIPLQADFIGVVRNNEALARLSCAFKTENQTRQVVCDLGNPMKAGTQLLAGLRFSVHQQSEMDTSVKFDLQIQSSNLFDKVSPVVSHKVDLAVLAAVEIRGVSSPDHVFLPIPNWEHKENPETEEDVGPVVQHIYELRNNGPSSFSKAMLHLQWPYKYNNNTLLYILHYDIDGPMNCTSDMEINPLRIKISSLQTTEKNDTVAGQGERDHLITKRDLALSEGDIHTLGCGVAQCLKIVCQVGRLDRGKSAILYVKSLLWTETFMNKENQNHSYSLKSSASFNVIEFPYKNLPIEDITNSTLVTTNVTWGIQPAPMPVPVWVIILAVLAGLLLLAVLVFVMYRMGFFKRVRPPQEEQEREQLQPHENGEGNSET
T2 sequence (P05556 21-798 limits assumed, chain 2 of 2): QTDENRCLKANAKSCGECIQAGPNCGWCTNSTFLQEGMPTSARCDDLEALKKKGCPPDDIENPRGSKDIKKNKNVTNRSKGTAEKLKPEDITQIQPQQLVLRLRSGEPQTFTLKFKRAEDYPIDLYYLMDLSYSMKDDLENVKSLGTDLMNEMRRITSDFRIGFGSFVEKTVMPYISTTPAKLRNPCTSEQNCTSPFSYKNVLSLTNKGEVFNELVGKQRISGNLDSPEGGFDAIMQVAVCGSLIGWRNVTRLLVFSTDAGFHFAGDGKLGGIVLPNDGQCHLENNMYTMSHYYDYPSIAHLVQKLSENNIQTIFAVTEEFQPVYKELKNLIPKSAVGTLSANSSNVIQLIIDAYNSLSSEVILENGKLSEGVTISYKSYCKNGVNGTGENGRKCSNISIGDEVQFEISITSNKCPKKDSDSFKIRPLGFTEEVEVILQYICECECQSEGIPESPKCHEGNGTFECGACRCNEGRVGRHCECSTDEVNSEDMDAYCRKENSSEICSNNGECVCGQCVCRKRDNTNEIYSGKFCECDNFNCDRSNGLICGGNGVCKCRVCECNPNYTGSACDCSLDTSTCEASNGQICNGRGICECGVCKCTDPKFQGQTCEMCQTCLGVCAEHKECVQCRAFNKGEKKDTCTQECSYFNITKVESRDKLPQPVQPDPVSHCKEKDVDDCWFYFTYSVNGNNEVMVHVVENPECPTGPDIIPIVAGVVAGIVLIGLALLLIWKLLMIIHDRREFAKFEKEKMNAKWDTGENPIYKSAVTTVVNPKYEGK
Method: (§1) Cells were washed in the appropriate assay buffer three times by pelleting at 1500 RPM for 3 minutes and then pouring out supernatant. Assay buffer for this experiment was TBS containing 1 mg/mL BSA and supplemented with either 1 mM Ca+1 mM Mg or with 1 mM Mn. Cells were then resuspended in assay buffer at a concentration of 1.0-1.5×10⁶ cells/mL and transferred to wells of a 96-well assay plate (Corning 3799) in 50 μL aliquots. Plates were then centrifuged at 2000 RPM for 3 minutes to pellet cells and supernatant was flicked out. Cells were resuspended in 100 μL of antibody sample and incubated on ice for 45 to 60 minutes.
(§2) Plates were washed three times in 150 μL assay buffer by pelleting at 2000 RPM for 3 minutes and then flicking out the supernatant. Cells were then resuspended in 50 μL of phycoerythrin-conjugated goat anti-human Fab secondary reagent and incubated on ice in the dark for 30 minutes. Plates were washed three times in 150 μL assay buffer by pelleting at 2000 RPM for 3 minutes and then flicking out the supernatant. Cells were then resuspended in 200 μL of assay buffer+1% polyformaldehyde (PFA) for 30 minutes on ice to fix the cells. Cells were pelleted to remove the PFA and then resuspended in 150 μL assay buffer.

[3] = molecular target: T3, αvβ3 integrin on stably transfected cells (human, UniProt P05106 27-788); experiment: as above
T3 construct: whole, on cells
Method: as §1, §2

[4] = molecular target: T2, human αvβ1 integrin on cells; experiment: inhibition of adhesion of BCECF-labelled αvβ1-transfected cells to plate-coated LAP
Method: (§3) The plate was washed twice with PBS (200 μl/well), blocked with 1% BSA in PBS (200 μl/well) for 1 h at room temperature, and washed thrice with 200 μl/well of assay buffer (TBS, 2 mM Glucose, 0.1% BSA, 1 mM CaCl₂) and 1 mM MgCl₂, pH 7.4). Stably transfected human αvβ1 cells were removed from cell suspension and centrifuged at 1100 rpm for 5 mins. The pellet was resuspended in RPMI 1640, 1% BSA buffer and incubated with 2 μM fluorescent dye (BCECF, Molecular Probes, Eugene, Oreg.) in a 37° C. incubator for 30 min. The labeled cells were washed twice by centrifugation at 1100 rpm for 5 min and resuspended in assay buffer to 0.8×10⁶ cells/ml. To individual wells of the washed plate were added 50 μl of purified antibody and 50 μl of human αvβ1 cells labeled with BCECF, and the plate was incubated at room temperature in dark for 1 h. The plate was washed 3-4 times with assay buffer (200 μl/well), and the fluorescence due to adhered cells on the plate was recorded at 485 nm (Excitation) and 538 nm (Emission) wavelength. Percent binding was determined by comparing the fluorescence prior to the final wash step (i.e. total cells added) to that after washing (i.e. bound cells).

α4β1 integrin on cells = molecular target: T4, α4β1 integrin on cells (human, UniProt P13612 34-1032); experiment: Jurkat cell adhesion to VCAM-Ig, confirming the absence of binding to α4β1 cells in Example 3
T4 construct: whole, on cells; also called α4β1 on Jurkat cells; stably transfected α4β1 cells
Method: as §3, with “pH 7.4). Jurkat cells were” for “pH 7.4). Stably transfected human αvβ1 cells were”, “centrifuged at 1500 rpm for” for “centrifuged at 1100 rpm for”, “μl of Jurkat cells labeled” for “μl of human αvβ1 cells labeled”
This includes examples for a pan-αv commercial antibody (L230), a pan-β1 commercial antibody (mAb13), a published α4-specific antibody (natalizumab), and the c8 small molecule compound previously published as αvβ1 specific (Reed N I et al, Sci Transl Med, 7(288): 288ra79 (2015)).

[5] = molecular target: T5, αvβ8 integrin on stably transfected cells (human, UniProt P26012 43-769); experiment: flow cytometry on stably transfected cells, antibody titration (bivalent EC50)
T5 construct: whole, on cells
T5 sequence (chain, as listed by the source, chain 1 of 2): as the sequence (P06756 31-1048 limits assumed, chain 1 of 2) above
T5 sequence (P26012 43-769, chain 2 of 2): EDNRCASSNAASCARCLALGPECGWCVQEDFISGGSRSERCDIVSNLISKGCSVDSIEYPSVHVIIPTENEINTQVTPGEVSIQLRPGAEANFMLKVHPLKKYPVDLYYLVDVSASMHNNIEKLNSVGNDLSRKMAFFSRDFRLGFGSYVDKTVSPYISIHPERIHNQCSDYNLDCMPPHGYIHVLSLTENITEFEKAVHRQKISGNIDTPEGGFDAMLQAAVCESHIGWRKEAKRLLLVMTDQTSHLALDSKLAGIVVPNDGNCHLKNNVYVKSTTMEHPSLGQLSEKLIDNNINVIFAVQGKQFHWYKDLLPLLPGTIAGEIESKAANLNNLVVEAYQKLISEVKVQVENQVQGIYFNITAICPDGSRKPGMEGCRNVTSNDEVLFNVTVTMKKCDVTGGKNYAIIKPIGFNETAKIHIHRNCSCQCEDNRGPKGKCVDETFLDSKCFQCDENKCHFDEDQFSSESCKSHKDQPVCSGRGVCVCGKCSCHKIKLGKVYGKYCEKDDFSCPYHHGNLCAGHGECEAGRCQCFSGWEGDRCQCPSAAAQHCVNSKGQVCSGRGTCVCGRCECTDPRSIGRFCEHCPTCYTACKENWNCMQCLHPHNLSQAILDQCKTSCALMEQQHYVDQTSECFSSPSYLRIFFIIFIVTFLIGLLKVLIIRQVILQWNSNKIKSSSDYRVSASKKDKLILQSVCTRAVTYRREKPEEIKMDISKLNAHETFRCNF
Method: as §1, §2

[6] = molecular target: T6, αvβ5 integrin on stably transfected cells (human, UniProt P18084 24-799); experiment: as above
T6 construct: whole, on cells
Method: as §1, §2

[7] = molecular target: αvβ6 integrin on stably transfected cells (human, UniProt P06756 31-1048; P18564 22-788); experiment: as above
Method: as §1, §2

[8] = molecular target: T5, αvβ8 integrin on stably transfected …; experiment: flow cytometry on stably transfected cells; weak binding observed but incomplete fit to calculate EC50
Method: as §1, §2

T1 sequence (P43406 31-1044, chain 1 of 2): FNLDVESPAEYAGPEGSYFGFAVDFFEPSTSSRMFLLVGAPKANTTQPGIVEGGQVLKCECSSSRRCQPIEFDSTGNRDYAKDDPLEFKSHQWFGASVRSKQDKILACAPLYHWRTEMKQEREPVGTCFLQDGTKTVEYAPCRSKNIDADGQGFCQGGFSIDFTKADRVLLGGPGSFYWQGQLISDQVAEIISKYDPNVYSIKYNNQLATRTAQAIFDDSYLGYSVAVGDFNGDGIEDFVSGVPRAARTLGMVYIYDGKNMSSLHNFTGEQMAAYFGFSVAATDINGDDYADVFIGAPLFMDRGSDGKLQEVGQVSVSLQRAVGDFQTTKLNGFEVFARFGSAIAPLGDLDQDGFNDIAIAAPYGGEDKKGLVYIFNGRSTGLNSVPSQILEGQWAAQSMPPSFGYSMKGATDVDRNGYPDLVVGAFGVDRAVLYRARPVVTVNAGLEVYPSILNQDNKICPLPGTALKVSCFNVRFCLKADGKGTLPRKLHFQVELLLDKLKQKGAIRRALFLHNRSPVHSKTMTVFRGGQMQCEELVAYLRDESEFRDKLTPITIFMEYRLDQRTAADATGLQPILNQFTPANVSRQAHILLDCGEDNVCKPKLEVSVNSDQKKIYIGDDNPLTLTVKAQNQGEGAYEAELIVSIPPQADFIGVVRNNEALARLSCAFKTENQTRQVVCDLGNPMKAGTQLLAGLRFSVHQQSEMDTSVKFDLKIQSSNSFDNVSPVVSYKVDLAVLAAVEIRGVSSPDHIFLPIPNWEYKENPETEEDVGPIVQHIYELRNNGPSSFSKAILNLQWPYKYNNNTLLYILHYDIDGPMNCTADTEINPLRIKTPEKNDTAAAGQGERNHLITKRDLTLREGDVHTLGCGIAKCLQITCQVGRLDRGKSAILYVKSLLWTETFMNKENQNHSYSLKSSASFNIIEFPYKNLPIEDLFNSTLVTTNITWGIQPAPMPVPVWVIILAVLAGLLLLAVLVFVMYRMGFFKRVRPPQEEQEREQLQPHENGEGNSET
T1 sequence (P09055 21-798, chain 2 of 2): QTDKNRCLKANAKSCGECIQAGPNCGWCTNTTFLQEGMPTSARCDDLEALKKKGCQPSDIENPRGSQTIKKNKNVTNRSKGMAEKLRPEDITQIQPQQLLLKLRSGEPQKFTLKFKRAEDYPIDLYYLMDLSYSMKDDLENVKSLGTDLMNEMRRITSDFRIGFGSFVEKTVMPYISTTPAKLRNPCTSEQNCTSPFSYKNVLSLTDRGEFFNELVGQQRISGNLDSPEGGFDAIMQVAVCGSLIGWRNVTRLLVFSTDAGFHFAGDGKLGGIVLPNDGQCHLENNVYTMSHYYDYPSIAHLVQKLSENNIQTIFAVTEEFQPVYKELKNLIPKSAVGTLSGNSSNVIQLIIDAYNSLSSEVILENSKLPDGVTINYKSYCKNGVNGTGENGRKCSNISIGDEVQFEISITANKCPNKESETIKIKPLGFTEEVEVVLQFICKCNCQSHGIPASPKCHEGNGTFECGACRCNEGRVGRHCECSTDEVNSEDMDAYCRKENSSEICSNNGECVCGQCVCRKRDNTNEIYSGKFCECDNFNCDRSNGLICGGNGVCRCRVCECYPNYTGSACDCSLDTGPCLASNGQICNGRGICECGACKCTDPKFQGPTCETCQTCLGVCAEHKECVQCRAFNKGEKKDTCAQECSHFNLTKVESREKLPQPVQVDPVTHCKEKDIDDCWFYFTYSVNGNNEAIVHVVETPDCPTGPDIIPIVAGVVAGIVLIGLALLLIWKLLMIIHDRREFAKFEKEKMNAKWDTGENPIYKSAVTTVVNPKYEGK

binding result [1] | EC50 [2] | IC50 [4] | binding result (α4β1 integrin on cells) | Binder | further results
binds | 1.4 nM | < 1 nM | no binding | Exemplary Antibody 17 (antibody, V domains shown, expressed in yeast (Adimab platform) and purified on protein A; also called Ex. Ab 17) VH: EVQLVQSGAEVKKPGESLKISCKGSGYSFTSYWIGWVRQMPGKGLEWMGIIYPGDSDTRYSPSFQGQVTISADKSISTAYLQWSSLKASDTAMYYCARGPRSRGDGPSNYYYMDVWGQGTLVTVSS VL: DIQMTQSPSTLSASVGDRVTITCRASQSISSWLAWYQQKPGKAPKLLIYKASSLESGVPSRFSGSGSGTEFTLTISSLQPDDFATYYCQQYRPLPPTFGGGTKVEIK | EC50 [3]: 3.3 nM
binds | 2.8 nM | 1.4 nM | no binding | Exemplary Antibody 19 (antibody, V domains shown, expressed in yeast (Adimab platform) and purified on protein A; also called Ex. Ab 19) VH: QVQLVESGGGVVQPGRSLRLSCAASGFTFSSYGMHWVRQAPGKGLEWVAVISYDGSNKYYADSVKGRFTISRDNSKNTLYLQMNSLRAEDTAVYYCARGGPTRGDGTRVYYYGMDVWGQGTTVTVSS VL: not shown | EC50 [5]: 2.8 nM
 |  |  | no binding | Exemplary Antibody 5 (antibody, V domains shown, expressed in yeast (Adimab platform) and purified on protein A; also called Ex. Ab 5) VH: EVQLVESGGGVVQPGRSLRLSCAASGFTFKYYGMHWVRQAPGKGLEWVASIWYDGSNKKYADSVKGRFTISRDNSKNTLYLQMNSLRAEDTAVYYCARGGPTRGDGTRVYYYGMDVWGQGTTVTVSS VL: EIVMTQSPATLSVSPGERATLSCRASQSVSSNLAWYQQKPGQAPRLLIYSASTRATGIPARFSGSGSGTEFTLTISSLQSEDFAVYYCQQYYHHPFTFGGGTKVEIK | 
binds | 4.9 nM | 2.8 nM | no binding | Exemplary Antibody 4 (antibody, V domains shown, expressed in yeast (Adimab platform) and purified on protein A; also called Ex. Ab 4) VH: QVQLVESGGGLVQPGGSLRLSCAASGFTFTSYYMHWVRQAPGQGLEWMGIINPSGGSTSYAQKFQGRVTMTRDTSTSTVYMELSSLRSEDTAVYYCARQQRHRRDYDYYYGMDVWGQGTTVTVSS VL: EIVLTQSPGTLSLSPGERATLSCRASQSVSSDYLAWYQQKPGQAPRLLIYGASRRATGIPDRFSGSGSGTDFTLTISRLEPEDFAVYYCQQAYSLPPTFGGGTKVEIK | 

Continued, binder first:

Binder | binding result [1] | EC50 [2] | IC50 [4] | binding result (α4β1 integrin on cells) | further results
Exemplary Antibody 18 (antibody, V domains shown, expressed in yeast (Adimab platform) and purified on protein A; also called Ex. Ab 18) VH: QVQLVQSGAEVKKPGASVKVSCKASGYTFRSFYMHWVRQAPGQGLEWMGVINPSLGSTGYAQKFQGRVTMTRDTSTSTVYMELSSLRSEDTAVYYCARETNYYRGGPAFDIWGQGTMVTVSS VL: not shown |  | 2 nM |  |  | EC50 [3]: 13 nM; EC50 [6]: 11 nM; EC50 [7]: 16 nM; EC50 [5]: 10 nM
Exemplary Antibody 14 (antibody, V domains shown, expressed in yeast (Adimab platform) and purified on protein A; also called Ex. Ab 14) VH: QVQLVESGGGLVKPGGSLRLSCAASGFTFSDYYMSWIRQAPGKGLEWVSYISSSGSTIYYADSVKGRFTISRDNAKNSLYLQMNSLRAEDTAVYYCARERGNRGDTPRYYYMDVWGKGTTVTVSS VL: DIQMTQSPSSLSASVGDRVTITCRASQSISRYLNWYQQKPGKAPKLLIYAASSLQSGVPSRFSGSGSGTDFTLTISSLQPEDFATYYCQQSLVTPFTFGGGTKVEIK |  | 0.8 nM | 2.2 nM |  | 
Exemplary Antibody 6 (antibody, V domains shown, expressed in yeast (Adimab platform) and purified on protein A; also called Ex. Ab 6) VH: QVQLVESGGGLVKPGGSLRLSCAASGFTFSDYYMSWIRQAPGKGLEWVSYISSSGSTIYYADSVKGRFTISRDNAKNSLYLQMNSLRAEDTAVYYCARGGRNRGDSSLSGIDVWGQGTTVTVSS VL: DIQMTQSPSSLSASVGDRVTITCRASQSINSYLNWYQQKPGKAPKLLIYAASSLQSGVPSRFSGSGSGTDFTLTISSLQPEDFATYYCQQQYSDITFGGGTKVEIK |  | 0.8 nM | 9 nM |  | 
Exemplary Antibody 13 (antibody, V domains shown, expressed in yeast (Adimab platform) and purified on protein A; also called Ex. Ab 13) VH: QVQLVESGGGLVKPGGSLRLSCAASGFTFSDYYMSWIRQAPGKGLEWVSYISSSGSTIYYADSVKGRFTISRDNAKNSLYLQMNSLRAEDTAVYYCARGGPSRGDALAEYFQHWGQGTTVTVSS VL: EIVMTQSPATLSVSPGERATLSCRASQSVSSNLAWYQQKPGQAPRLLIYGASTRATGIPARFSGSGSGTEFTLTISSLQSEDFAVYYCQQLTNHPPIAFGGGTKVEIK |  | 0.6 nM | 1.3 nM |  | 
Exemplary Antibody 20 (antibody, V domains shown, expressed in yeast (Adimab platform) and purified on protein A; also called Ex. Ab 20) VH: QVQLVESGGGLVKPGGSLRLSCAASGFTFSDYYMSWIRQAPGKGLEWVSYISSSGSTIYYADSVKGRFTISRDNAKNSLYLQMNSLRAEDTAVYYCARGGPSRGDALAEYFQHWGQGTTVTVSS VL: EIVLTQSPATLSLSPGERATLSCRASQSVSRYLAWYQQKPGQAPRLLIYDASNRATGIPARFSGSGSGTDFTLTISSLEPEDFAVYYCQQLSLHPPYTFGGGTKVEIK |  | 0.4 nM | 1 nM |  | binding result [8]: binds
Exemplary Antibody 7 (antibody, V domains shown, expressed in yeast (Adimab platform) and purified on protein A; also called Ex. Ab 7) VH: QVQLVESGGGLVKPGGSLRLSCAASGFTFSDYYMSWIRQAPGKGLEWVSYISSSGSTIYYADSVKGRFTISRDNAKNSLYLQMNSLRAEDTAVYYCARGGPSRGDALAEYFQHWGQGTTVTVSS VL: EIVMTQSPATLSVSPGERATLSCRASQSVSSNLAWYQQKPGQAPRLLIYGASTRATGIPARFSGSGSGTEFTLTISSLQSEDFAVYYCQQLVNYPPITFGGGTKVEIK |  | 1.2 nM | 4.3 nM |  | 
